Results as given in the supplement of paper PMC7877785.
± gives the uncertainty stated by the source.

Experiment: self-splicing fitness, log relative to wild type (ln ratio); higher = more splicing; Tetrahymena group I intron in knt gene, E. coli kanamycin selection, DiMSum; sequences stand for … in CUCUCU…GGAGGGAAAAGUUAUCAGGCAUGCACCUGGUAGCUAGUCUUUAAACCAAUAGAUUGCAUCGGUUUAAAAGGCAAGACCGUCAAAUUGCGGGAAAGGGGUCAACAGCCGUUCAGUACCAAGUCUCAGGGGAAACUUUGAGAUGGCCUUGCAAAGGGUAUGGUAAUAAGCUGACGGACAUGGUCCUAACCACGCAGCCAAGUCCUAAGUCAACAGAUCUUCUGUUGAUAUGGAUGCAGUUCACAGACUAAAUGUCGGUCGGGGAAGAUGUAUUCUUCUCAUAAGAUAUAGUCGGACCUCUCCUUAAUGGGAGCUAGCGGAUGAAGUGAUGCAACACUGGAGCCGCUGGGAACUAAUUUGUAUGCGAAAGUAUAUUGAUUAGUUUUGGAGUACUCGUGGUCG
Summary of the method: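 Colonies from six replicate transformations of E. coli BL21(DE3) were pooled and amplicon-sequenced on an Illumina HiSeq 2500. The library placed an intron with all eight P1ex-region nucleotides randomised inside the knt kanamycin-resistance gene on pET-22b(+), and cells grew overnight at 37°C or 30°C on LB agar with or without 25 μg/mL kanamycin (plus 100 μg/mL carbenicillin, 50 μM IPTG, 0.2% rhamnose). Fitness is the DiMSum error-weighted combination of wild-type-normalised replicate fold changes, kanamycin versus none.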

Sequence: AACGAGCAAUAUUACGAUUA
- self-splicing fitness (ln) (30 °C): -1.89 ± 0.16
- self-splicing fitness (ln) (37 °C): -1.02 ± 0.16

Sequence: GUCGAGCAAUAUUACGCUUU
- self-splicing fitness (ln) (30 °C): -1.81 ± 0.18
- self-splicing fitness (ln) (37 °C): -1.92 ± 0.2

Sequence: AUACAGCAAUAUUACGCCUA
- self-splicing fitness (ln) (30 °C): -1.1 ± 0.11
- self-splicing fitness (ln) (37 °C): -0.472 ± 0.12

Sequence: UACGAGCAAUAUUACGCCCG
- self-splicing fitness (ln) (30 °C): -3.1 ± 0.18
- self-splicing fitness (ln) (37 °C): -2.02 ± 0.17

Sequence: CCAAAGCAAUAUUACGCUCU
- self-splicing fitness (ln) (30 °C): -3.95 ± 0.27
- self-splicing fitness (ln) (37 °C): -2.95 ± 0.23

Sequence: GCCAAGCAAUAUUACGAACU
- self-splicing fitness (ln) (30 °C): -1.3 ± 0.18
- self-splicing fitness (ln) (37 °C): -0.873 ± 0.22

Sequence: UACGAGCAAUAUUACGUGCA
- self-splicing fitness (ln) (30 °C): -3.16 ± 0.19
- self-splicing fitness (ln) (37 °C): -1.32 ± 0.13

Sequence: UCACAGCAAUAUUACGAUCU
- self-splicing fitness (ln) (30 °C): -2.71 ± 0.1
- self-splicing fitness (ln) (37 °C): -1.78 ± 0.11

Sequence: UUAGAGCAAUAUUACGCCUA
- self-splicing fitness (ln) (30 °C): -0.268 ± 0.13
- self-splicing fitness (ln) (37 °C): -0.0554 ± 0.19

Sequence: AUUAAGCAAUAUUACGCAGG
- self-splicing fitness (ln) (30 °C): -2.22 ± 0.19
- self-splicing fitness (ln) (37 °C): -0.608 ± 0.2

Sequence: AGGCAGCAAUAUUACGAGGU
- self-splicing fitness (ln) (30 °C): -2.14 ± 0.15
- self-splicing fitness (ln) (37 °C): -2.68 ± 0.26

Sequence: GGUUAGCAAUAUUACGGGCA
- self-splicing fitness (ln) (30 °C): -0.0835 ± 0.083
- self-splicing fitness (ln) (37 °C): -0.182 ± 0.079

Sequence: GGCCAGCAAUAUUACGAGUU
- self-splicing fitness (ln) (30 °C): -0.659 ± 0.1
- self-splicing fitness (ln) (37 °C): -1 ± 0.11

Sequence: UACAAGCAAUAUUACGUUAA
- self-splicing fitness (ln) (30 °C): -3.35 ± 0.14
- self-splicing fitness (ln) (37 °C): -1.74 ± 0.092

Sequence: UCCAAGCAAUAUUACGCAAG
- self-splicing fitness (ln) (30 °C): -3.86 ± 0.32
- self-splicing fitness (ln) (37 °C): -2.51 ± 0.26

Sequence: CUGGAGCAAUAUUACGAUGA
- self-splicing fitness (ln) (30 °C): -3.18 ± 0.4
- self-splicing fitness (ln) (37 °C): -1.87 ± 0.24

Sequence: UGGUAGCAAUAUUACGCUGU
- self-splicing fitness (ln) (30 °C): -3.24 ± 0.19
- self-splicing fitness (ln) (37 °C): -2.12 ± 0.17

Sequence: ACCCAGCAAUAUUACGUCGU
- self-splicing fitness (ln) (30 °C): -0.24 ± 0.039
- self-splicing fitness (ln) (37 °C): -0.318 ± 0.051

Sequence: GCAGAGCAAUAUUACGGAGU
- self-splicing fitness (ln) (30 °C): -3.24 ± 0.2
- self-splicing fitness (ln) (37 °C): -2.05 ± 0.27

Sequence: GUCAAGCAAUAUUACGCGGA
- self-splicing fitness (ln) (30 °C): -2.98 ± 0.17
- self-splicing fitness (ln) (37 °C): -2.02 ± 0.16

Sequence: UCUAAGCAAUAUUACGCUUU
- self-splicing fitness (ln) (30 °C): -3.36 ± 0.21
- self-splicing fitness (ln) (37 °C): -2.94 ± 0.48

Sequence: GCCUAGCAAUAUUACGGUAG
- self-splicing fitness (ln) (30 °C): -3.79 ± 0.18
- self-splicing fitness (ln) (37 °C): -2.99 ± 0.27

Sequence: UAAAAGCAAUAUUACGUUCG
- self-splicing fitness (ln) (30 °C): -0.052 ± 0.085
- self-splicing fitness (ln) (37 °C): -0.0686 ± 0.11

Sequence: CAACAGCAAUAUUACGCUUG
- self-splicing fitness (ln) (30 °C): -2.71 ± 0.12
- self-splicing fitness (ln) (37 °C): -1.82 ± 0.14

Sequence: AGGCAGCAAUAUUACGGUCU
- self-splicing fitness (ln) (30 °C): -3.15 ± 0.24
- self-splicing fitness (ln) (37 °C): -2.61 ± 0.25

Sequence: GACAAGCAAUAUUACGGCUA
- self-splicing fitness (ln) (30 °C): -0.175 ± 0.074
- self-splicing fitness (ln) (37 °C): -0.187 ± 0.079

Sequence: AUGCAGCAAUAUUACGUUCG
- self-splicing fitness (ln) (30 °C): -0.728 ± 0.059
- self-splicing fitness (ln) (37 °C): -0.798 ± 0.089

Sequence: AAACAGCAAUAUUACGCACC
- self-splicing fitness (ln) (30 °C): -0.45 ± 0.084
- self-splicing fitness (ln) (37 °C): -0.254 ± 0.099

Sequence: AGAGAGCAAUAUUACGGAAC
- self-splicing fitness (ln) (30 °C): -2.74 ± 0.38
- self-splicing fitness (ln) (37 °C): -1.83 ± 0.4

Sequence: GAAUAGCAAUAUUACGGCCU
- self-splicing fitness (ln) (30 °C): -0.86 ± 0.075
- self-splicing fitness (ln) (37 °C): 0.112 ± 0.12

Sequence: UCGAAGCAAUAUUACGAUAC
- self-splicing fitness (ln) (30 °C): -3.33 ± 0.25

Sequence: GGCCAGCAAUAUUACGGGCU
- self-splicing fitness (ln) (30 °C): -2.4 ± 0.2
- self-splicing fitness (ln) (37 °C): -3.16 ± 0.47

Sequence: ACCUAGCAAUAUUACGUGCA
- self-splicing fitness (ln) (30 °C): -2.89 ± 0.12
- self-splicing fitness (ln) (37 °C): -1.25 ± 0.1

Sequence: AUACAGCAAUAUUACGUUGA
- self-splicing fitness (ln) (30 °C): -2.53 ± 0.095
- self-splicing fitness (ln) (37 °C): -1.44 ± 0.088

Sequence: GUUGAGCAAUAUUACGCCGU
- self-splicing fitness (ln) (30 °C): -2.98 ± 0.23
- self-splicing fitness (ln) (37 °C): -0.768 ± 0.16

Sequence: UAUGAGCAAUAUUACGGCUG
- self-splicing fitness (ln) (30 °C): -1.01 ± 0.15
- self-splicing fitness (ln) (37 °C): -0.14 ± 0.19

Sequence: CUUAAGCAAUAUUACGUACA
- self-splicing fitness (ln) (37 °C): -2.73 ± 0.39

Sequence: UUGAAGCAAUAUUACGGGAU
- self-splicing fitness (ln) (30 °C): -2.63 ± 0.14
- self-splicing fitness (ln) (37 °C): -1 ± 0.14

Sequence: AGAGAGCAAUAUUACGCGUC
- self-splicing fitness (ln) (30 °C): -2.64 ± 0.36
- self-splicing fitness (ln) (37 °C): -0.28 ± 0.28

Sequence: UAUUAGCAAUAUUACGCUAA
- self-splicing fitness (ln) (37 °C): -1.1 ± 0.46

Sequence: UAACAGCAAUAUUACGAAAA
- self-splicing fitness (ln) (30 °C): -3.2 ± 0.21
- self-splicing fitness (ln) (37 °C): -1.18 ± 0.15

Sequence: GCCCAGCAAUAUUACGCAAU
- self-splicing fitness (ln) (30 °C): -1.23 ± 0.059
- self-splicing fitness (ln) (37 °C): -0.336 ± 0.069

Sequence: AAUAAGCAAUAUUACGGCAA
- self-splicing fitness (ln) (30 °C): -0.158 ± 0.09
- self-splicing fitness (ln) (37 °C): -0.3 ± 0.12

Sequence: AGCCAGCAAUAUUACGCGUG
- self-splicing fitness (ln) (30 °C): -1.91 ± 0.089
- self-splicing fitness (ln) (37 °C): -1.35 ± 0.092

Sequence: GGCGAGCAAUAUUACGCGUG
- self-splicing fitness (ln) (30 °C): -1.15 ± 0.19
- self-splicing fitness (ln) (37 °C): -0.666 ± 0.2

Sequence: CCUGAGCAAUAUUACGAGAC
- self-splicing fitness (ln) (30 °C): -2.85 ± 0.33
- self-splicing fitness (ln) (37 °C): -0.69 ± 0.33

Sequence: CCCCAGCAAUAUUACGUUCG
- self-splicing fitness (ln) (30 °C): -3.53 ± 0.16
- self-splicing fitness (ln) (37 °C): -2.79 ± 0.17

Sequence: UACGAGCAAUAUUACGAUAU
- self-splicing fitness (ln) (30 °C): -2.39 ± 0.26
- self-splicing fitness (ln) (37 °C): -3.25 ± 0.37

Sequence: UGGUAGCAAUAUUACGGAAA
- self-splicing fitness (ln) (30 °C): -1.86 ± 0.28
- self-splicing fitness (ln) (37 °C): -1.81 ± 0.24
